Data reported in US20220169728A1 (AB THERAPEUTICS, published 2022).
Substitutions are numbered along the chain they refer to. Numbers in names are those of the source.

T1: CD55 (UniProt P08174 35-353, limits assumed)
T1 construct: whole, on cells; also called CD55 on Rituximab resistant Raji cells (RRCL)
T1 sequence (looked up): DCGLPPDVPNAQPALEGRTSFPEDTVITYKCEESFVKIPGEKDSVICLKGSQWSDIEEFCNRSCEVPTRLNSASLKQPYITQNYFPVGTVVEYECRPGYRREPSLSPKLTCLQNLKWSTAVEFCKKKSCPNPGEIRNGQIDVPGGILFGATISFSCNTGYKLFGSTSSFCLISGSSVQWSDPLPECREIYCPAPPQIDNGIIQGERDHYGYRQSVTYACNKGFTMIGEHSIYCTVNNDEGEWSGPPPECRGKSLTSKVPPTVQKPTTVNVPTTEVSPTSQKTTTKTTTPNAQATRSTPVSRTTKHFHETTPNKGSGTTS

T2: CD20 (UniProt P11836 1-297, limits assumed)
T2 construct: whole, on cells; also called CD20 on Raji cells
T2 sequence (looked up): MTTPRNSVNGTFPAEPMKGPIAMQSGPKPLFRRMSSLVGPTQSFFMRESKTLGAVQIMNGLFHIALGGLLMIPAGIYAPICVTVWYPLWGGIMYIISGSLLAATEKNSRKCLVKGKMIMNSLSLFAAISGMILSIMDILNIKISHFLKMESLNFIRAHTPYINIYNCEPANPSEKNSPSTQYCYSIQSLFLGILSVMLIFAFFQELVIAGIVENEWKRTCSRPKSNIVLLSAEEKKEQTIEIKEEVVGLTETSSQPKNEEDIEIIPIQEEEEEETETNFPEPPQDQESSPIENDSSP

B1: anti-CD55 antibody with CD55VH (SEQ ID NO: 14) N52C and VL (SEQ ID NO: 15) (antibody, V domains shown)
VH: QVKLQESGGGLVQPGGSLKLSCAASGFTFSGYGMSWIRQTPDKRLEWVATICSGGSYTYYSDSVKGRFTISRDNVKNTLYLQMSSLKSEDTAMYYCARRNGTLYYYLMDYWGRGTLVTVSS
VL: QSVLTQPPSASGSPGQSVTISCTGTSSDVGGYNYVSWYQQHPGKAPKFMIYDVSKRPSGVSNRFSGSKSGNTASLTISGVQAEDEADYYCSSYTSASTVIFGGGTKLTVL
notes: also called Test 3
B2: anti-CD55 antibody with CD55VH (SEQ ID NO: 14) N100M and VL (SEQ ID NO: 15) (antibody, V domains shown)
VH: B1 VH with C52N, N100M
VL: B1 VL
notes: also called Test 19
B3: anti-CD55 antibody with CD55VH (SEQ ID NO: 14) N52Y and VL (SEQ ID NO: 15) (antibody, V domains shown)
VH: B1 VH with C52Y
VL: B1 VL
notes: also called Test 9
B4: anti-CD55 antibody with CD55VH (SEQ ID NO: 14) N100T and VL (SEQ ID NO: 15) (antibody, V domains shown)
VH: B1 VH with C52N, N100T
VL: B1 VL
notes: also called Test 14
B5: anti-CD55 antibody with CD55VH (SEQ ID NO: 14) N100H and VL (SEQ ID NO: 15) (antibody, V domains shown)
VH: B1 VH with C52N, N100H
VL: B1 VL
notes: also called Test 21
B6: anti-CD55 antibody with CD55VH (SEQ ID NO: 14) N52E and VL (SEQ ID NO: 15) (antibody, V domains shown)
VH: B1 VH with C52E
VL: B1 VL
notes: also called Test 6
B7: anti-CD55 antibody with CD55VH (SEQ ID NO: 14) N100K and VL (SEQ ID NO: 15) (antibody, V domains shown)
VH: B1 VH with C52N, N100K
VL: B1 VL
notes: also called Test 13
B8: anti-CD55 antibody with CD55VH (SEQ ID NO: 14) N100F and VL (SEQ ID NO: 15) (antibody, V domains shown)
VH: B1 VH with C52N, N100F
VL: B1 VL
notes: also called Test 18
B9: anti-CD55 antibody with CD55VH (SEQ ID NO: 14) N52M and VL (SEQ ID NO: 15) (antibody, V domains shown)
VH: B1 VH with C52M
VL: B1 VL
notes: also called Test 8
B10: anti-CD55 antibody with CD55VH (SEQ ID NO: 14) N52S and VL (SEQ ID NO: 15) (antibody, V domains shown)
VH: B1 VH with C52S
VL: B1 VL
notes: also called Test 2
B11: anti-CD55 antibody with CD55VH (SEQ ID NO: 14) N52V and VL (SEQ ID NO: 15) (antibody, V domains shown)
VH: B1 VH with C52V
VL: B1 VL
notes: also called Test 5
B12: anti-CD55 antibody with CD55VH (SEQ ID NO: 14) T102M and VL (SEQ ID NO: 15) (antibody, V domains shown)
VH: B1 VH with C52N, T102M
VL: B1 VL
notes: also called Test 26
B13: anti-CD55 antibody with CD55VH (SEQ ID NO: 14) N52G and VL (SEQ ID NO: 15) (antibody, V domains shown)
VH: B1 VH with C52G
VL: B1 VL
notes: also called Test 4
B14: anti-CD55 antibody with CD55VH (SEQ ID NO: 14) N100V and VL (SEQ ID NO: 15) (antibody, V domains shown)
VH: B1 VH with C52N, N100V
VL: B1 VL
notes: also called Test 15
B15: anti-CD55 antibody with CD55VH (SEQ ID NO: 14) T102G and VL (SEQ ID NO: 15) (antibody, V domains shown)
VH: B1 VH with C52N, T102G
VL: B1 VL
notes: also called Test 27
B16: anti-CD55 antibody with CD55VH (SEQ ID NO: 14) N100A and VL (SEQ ID NO: 15) (antibody, V domains shown)
VH: B1 VH with C52N, N100A
VL: B1 VL
notes: also called Test 20
B17: anti-CD55 antibody with CD55VH (SEQ ID NO: 14) N100Q (printed "N1000") and VL (SEQ ID NO: 15) (antibody, V domains shown)
VH: B1 VH with C52N, N100Q
VL: B1 VL
notes: The cell prints "N1000"; also called Test 22
B18: anti-CD55 antibody with CD55VH (SEQ ID NO: 14) N100I and VL (SEQ ID NO: 15) (antibody, V domains shown)
VH: B1 VH with C52N, N100I
VL: B1 VL
notes: also called Test 23
B19: anti-CD55 antibody with CD55VH (SEQ ID NO: 14) N52P and VL (SEQ ID NO: 15) (antibody, V domains shown)
VH: B1 VH with C52P
VL: B1 VL
notes: also called Test 11
B20: anti-CD55 antibody with CD55VH (SEQ ID NO: 14) N52L and VL (SEQ ID NO: 15) (antibody, V domains shown)
VH: B1 VH with C52L
VL: B1 VL
notes: also called Test 10
B21: anti-CD55 antibody with CD55VH (SEQ ID NO: 14) N100E and VL (SEQ ID NO: 15) (antibody, V domains shown)
VH: B1 VH with C52N, N100E
VL: B1 VL
notes: also called Test 24
B22: anti-CD55 antibody with CD55VH (SEQ ID NO: 14) N100L and VL (SEQ ID NO: 15) (antibody, V domains shown)
VH: B1 VH with C52N, N100L
VL: B1 VL
notes: also called Test 17
B23: anti-CD55 antibody with CD55VH (SEQ ID NO: 14) N100Y and VL (SEQ ID NO: 15) (antibody, V domains shown)
VH: B1 VH with C52N, N100Y
VL: B1 VL
notes: also called Test 16
B24: anti-CD55 antibody with CD55VH (SEQ ID NO: 14) N52W and VL (SEQ ID NO: 15) (antibody, V domains shown)
VH: B1 VH with C52W
VL: B1 VL
notes: also called Test 7
B25: parental anti-CD3 IgG (Parental CD3) (antibody, V domains shown)
VH: QVQLQQSGAELARPGASVKMSCKASGYTFTSYTMHWVKQRPGQGLEWIGYINPSSGYTKYNQKFKDKATLTADKSSSTAYMQLSSLTSEDSAVYYCARWQDYDVYFDYWGQGTTLTVSS
VL: QIVLSQSPAILSASPGEKVTMTCRASSSVSYMHWYQQKPGSSPKPWIYATSNLASGVPARFSGSGSGTSYSLTISRVEAEDAATYYCQQWSSNPPTFGGGTKLETKR
notes: IgG; also called MAb 12F6; CD3 parental Ab
B26: CD20/CD3 BsMab with common VL (SEQ ID NO: 3) Q88Y (bispecific antibody, V domains shown)
VH 1: QVQLQQPGAELVKPGASVKMSCKASGYTFTSYNMHWVKQTPGRGLEWIGAIYPGNGDTSYNQKFKGKATLTADKSSSTAYMQLSSLRSEDSAVYYCARSTYYGGDWYFNVWGAGTTVTVSA
VH 2: B25 VH with Q1E, Q6E, Q43E, Q82E, Q111E
VL: B25 VL with M32I, Y35F, A59V, Q88Y, S91T, T105I
B27: CD20/CD3 BsMab with common VL (SEQ ID NO: 3) Q88M (bispecific antibody, V domains shown)
VH 1: B26 VH 1
VH 2: B25 VH with Q1E, Q6E, Q43E, Q82E, Q111E
VL: B25 VL with M32I, Y35F, A59V, Q88M, S91T, T105I
B28: CD20/CD3 BsMab with common VL (SEQ ID NO: 3) Q88P (bispecific antibody, V domains shown)
VH 1: B26 VH 1
VH 2: B25 VH with Q1E, Q6E, Q43E, Q82E, Q111E
VL: B25 VL with M32I, Y35F, A59V, Q88P, S91T, T105I
B29: CD20/CD3 BsMab with common VL (SEQ ID NO: 3) Q88G (bispecific antibody, V domains shown)
VH 1: B26 VH 1
VH 2: B25 VH with Q1E, Q6E, Q43E, Q82E, Q111E
VL: B25 VL with M32I, Y35F, A59V, Q88G, S91T, T105I
B30: CD20/CD3 BsMab with common VL (SEQ ID NO: 3) N93C (bispecific antibody, V domains shown)
VH 1: B26 VH 1
VH 2: B25 VH with Q1E, Q6E, Q43E, Q82E, Q111E
VL: B25 VL with M32I, Y35F, A59V, S91T, N93C, T105I
B31: CD20/CD3 BsMab with common VL (SEQ ID NO: 3) Q88H (bispecific antibody, V domains shown)
VH 1: B26 VH 1
VH 2: B25 VH with Q1E, Q6E, Q43E, Q82E, Q111E
VL: B25 VL with M32I, Y35F, A59V, Q88H, S91T, T105I
B32: CD20/CD3 BsMab with common VL (SEQ ID NO: 3) Q88L (bispecific antibody, V domains shown)
VH 1: B26 VH 1
VH 2: B25 VH with Q1E, Q6E, Q43E, Q82E, Q111E
VL: B25 VL with M32I, Y35F, A59V, Q88L, S91T, T105I

Molecular target: T1, CD55
Experiment: binding at 5 µg/ml against the unmutated antibody (SEQ ID NO: 14 + 15); format not stated

Function remaining percentage (5 µg/ml) [%] | Binder
32 | B1
86 | B2
17 | B3
96 | B4
72 | B5
21 | B6
106 | B7
86 | B8
16 | B9
95 | B10
21 | B11
98 | B12
28 | B13
94 | B14
17 | B15
83 | B16
62 | B17
62 | B18
11 | B19
15 | B20
17 | B21
92 | B22
95 | B23
17 | B24

Molecular target: T2, CD20
Experiment: flow cytometry binding to CD20+ Raji cells, antibody titration, Cy3 goat anti-human IgG detection

binding result | Binder
no binding (tested: 10 µg/ml) | B25

Molecular target: CD3 (Homo sapiens (Human), UniProt P07766 23-207; P04234 22-171; P09693 23-182)
Sequence (P07766 23-207 limits assumed, chain 1 of 3): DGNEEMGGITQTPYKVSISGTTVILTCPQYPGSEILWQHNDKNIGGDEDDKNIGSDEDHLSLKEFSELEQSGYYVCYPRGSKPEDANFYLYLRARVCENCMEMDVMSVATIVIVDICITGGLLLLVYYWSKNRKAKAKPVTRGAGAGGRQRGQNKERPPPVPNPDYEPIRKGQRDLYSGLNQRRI
Sequence (P04234 22-171 limits assumed, chain 2 of 3): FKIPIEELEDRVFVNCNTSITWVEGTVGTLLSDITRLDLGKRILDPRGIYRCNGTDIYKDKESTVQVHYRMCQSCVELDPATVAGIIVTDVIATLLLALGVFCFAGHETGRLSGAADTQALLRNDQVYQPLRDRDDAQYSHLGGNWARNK
Sequence (P09693 23-182 limits assumed, chain 3 of 3): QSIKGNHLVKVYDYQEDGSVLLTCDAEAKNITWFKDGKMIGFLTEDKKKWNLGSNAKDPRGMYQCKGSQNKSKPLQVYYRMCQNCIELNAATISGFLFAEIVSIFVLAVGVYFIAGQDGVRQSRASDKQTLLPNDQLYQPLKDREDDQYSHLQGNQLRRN
Experiment: cell-based or functional assay

Function % 0.025 ug/ml (T cell activation, CD69 on Jurkat cells with Raji cells, against the unmutated baseline) [%] | Function % 2 ug/ml (T cell activation, CD69 on Jurkat cells with Raji cells, against the unmutated baseline) [%] | Binder
8 | 21 | B26
27 | 95 | B27
7 | 16 | B28
8 | 39 | B29
16 | 77 | B30
12 | 36 | B31
8 | 55 | B32
